Inhibition of HUVEC migration (scratch wound assay, 50 ng/ml rhVEGF) and Kd data for three molecules are collected here from patent US20100234283A1.

Assay [1] concerns the target VEGFR-2 on HUVEC and 293/KDR cells (human), P35968. The assay can be described thus: cell-based or functional assay.
For assay [2], the target named is T1, KDR-Fc (R&D System), P35968.
T1 chain: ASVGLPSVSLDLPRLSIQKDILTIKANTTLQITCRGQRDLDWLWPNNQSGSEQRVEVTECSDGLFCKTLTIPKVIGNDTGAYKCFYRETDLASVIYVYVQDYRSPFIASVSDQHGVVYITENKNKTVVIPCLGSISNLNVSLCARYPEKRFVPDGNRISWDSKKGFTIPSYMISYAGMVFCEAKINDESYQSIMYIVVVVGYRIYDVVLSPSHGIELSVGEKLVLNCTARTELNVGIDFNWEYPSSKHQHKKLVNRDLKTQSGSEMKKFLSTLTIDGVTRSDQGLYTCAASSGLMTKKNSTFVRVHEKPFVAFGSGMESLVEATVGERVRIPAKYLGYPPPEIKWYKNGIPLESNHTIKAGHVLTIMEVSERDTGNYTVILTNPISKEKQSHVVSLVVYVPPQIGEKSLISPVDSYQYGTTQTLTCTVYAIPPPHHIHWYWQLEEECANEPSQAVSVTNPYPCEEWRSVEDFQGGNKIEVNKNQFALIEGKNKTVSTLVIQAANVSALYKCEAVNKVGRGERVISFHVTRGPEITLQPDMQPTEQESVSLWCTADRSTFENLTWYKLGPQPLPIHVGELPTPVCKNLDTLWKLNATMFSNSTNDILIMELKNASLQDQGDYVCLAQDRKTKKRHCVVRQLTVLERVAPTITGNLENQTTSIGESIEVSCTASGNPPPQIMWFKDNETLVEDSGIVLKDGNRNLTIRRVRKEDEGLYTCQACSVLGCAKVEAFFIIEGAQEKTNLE
The assay can be described thus: SPR (BIAcore 3000), peptide on CM5 chip, KDR-Fc injected, 1:1 Langmuir fit.

Consider ITMQCGIHQGQHPKIMICEMSF (modifications not checked) [VEGF-P3(NC)], for which the inhibition of HUVEC migration (scratch wound assay, 50 ng/ml rhVEGF) in assay [1] came to 50%. The Kd in assay [2] worked out at 49 nM.

As to ITMQIMRIKPHQGQHIGEMSF (modifications not checked) [VEGF 102-122], in assay [1], the inhibition of HUVEC migration (scratch wound assay, 50 ng/ml rhVEGF) turned out to be 50%. This molecule also yielded a Kd in assay [2] of 45 nM.

In turn, ITMQCGIHQGQHPKIMICEMSF (modifications not checked) [VEGF-P3(CYC)] came in with an inhibition of HUVEC migration (scratch wound assay, 50 ng/ml rhVEGF) in assay [1] of 50%. For the same molecule, in assay [2], the Kd was 11 nM.
